In PMC7463542, “Automated GMP-Compliant Production of [^68Ga]Ga-DO3A-Tuna-2 for PET Microdosing Studies of the Glucagon Receptor in Humans” (Pharmaceuticals, 2020):

Columns and labels:
[1] = Storage stability of the aqueous precursor solution at −20 °C (formation of oxidized product); format: physicochemical; conditions: at least six months
[2] = Safety, pharmacology, and toxicology studies in animals; format: in vivo
[3] = format: physicochemical
Description: The aseptic production was conducted in a GMP grade A workstation (unidirectional laminar airflow workbench (LAFW)) situated in a cleanroom with GMP grade B air quality. The ^68Ge/^68Ga generator (GalliaPharm®, Eckert & Ziegler, Berlin, Germany) and Modular PharmLab labeling synthesis platform (Eckert & Ziegler Eurotope, Berlin, Germany) were placed in the LAFW. A high-performance liquid chromatography system (LaChrom, Hitachi, VWR) consisting of an L-2130 pump, UV detector (L-2400), and radiation flow detector (Bioscan) coupled in series was used for product quality control. Separation of the analytes was accomplished using an analytical column with a stationary reversed phase (C-4; Vydac-C4; 50 × 4.6 mm; particle size: 3 µm). The conditions were as follows: A = 10 mM trifluoroacetic acid in water; B = 100% acetonitrile (MeCN) with 10 mM TFA with UV-detection at 220 nm; linear gradient elution: 0 min at 24% B, 0–8 min from 24 to 45% B, 8–10 min at 45% B, 10–15 min at 24% B; flow rate was 2.0 mL/min. Data acquisition and handling were performed using the EZChrom Elite Software Package (version 1.3).
Quality control on the chemical purity, radiochemical purity, and determination of the peptide concentration was performed using UV-Radio-HPLC. The development and validation of the method were conducted using two different reversed-phase columns Vydac-C4 and Aeris-C4 with mobile phases of 0.1% TFA in water as the A mobile phase and 0.1% TFA in acetonitrile as the B mobile phase. The gradient of B increased from 25% to 40% within 30 min for Aeris-4 and B increased from 24 to 45% within 8 min, followed by 2 min of isocratic elution. The recovery of radioactivity from the analytical column was investigated, in order to confirm that no radioactive product or impurities were left on the column, by collecting HPLC effluent with and without an analytical column and measuring the radioactivity. The tests were performed for both the product ([^68Ga]Ga-DO3A-VS-Cys^40-Tuna-2) and free ^68Ga(III). Specificity, linearity, and precision as repeatability were validated for both UV- and radio-detectors.
Three successful sequential productions were performed for the manufacturing validation. A fraction of pre-determined volume was kept for the subsequent determination of ^68Ge content and solvent residual content. The stability of the product at room temperature was monitored by UV-radio-HPLC for 2 h.

[4] = Sensitivity of the labelled product to (radiolytic) oxidation; format: physicochemical; conditions: compared with [^68Ga]Ga-DO3A-VS-Cys^40-Exendin-4; labeling conditions
[5] = target: T1, glucagon receptor (GCGR) (Homo sapiens, UniProt P47871); format: in vivo, humans
T1 construct: strong liver uptake expected due to the high glucagon receptor expression on hepatocytes; from tissue; host or cells: liver (hepatocytes) of living human subjects with type 2 diabetes
Description: [^68Ga]Ga-DO3A-VS-Cys^40-Tuna-2 PET/CT was used for assessing the hepatic GCGR receptor density and availability within a phase Ib, open-label study investigating the receptor occupancy of a dual GLP1/GCG agonist (ClinicalTrials.gov: NCT03350191). The results of the full receptor occupancy study, as well as the human biodistribution and dosimetry of [^68Ga]Ga-DO3A-VS-Cys^40-Tuna-2, will be reported separately. The study was approved by the Swedish Medical Products Agency and the regional ethical review board (Dnr 2017/395; EudraCT nr. 2017-001789-23).
Briefly, individuals with T2D were enrolled in the study and signed informed consent. They (n = 13) were placed in the supine position with the liver in the 20 cm axial PET field of view of a Discovery MI PET/CT scanner (GE Healthcare). [^68Ga]Ga-DO3A-VS-Cys^40-Tuna-2 (target dose 0.5 MBq/kg, <0.2 µg/kg peptide) was administered intravenously as a bolus followed by a 60 min dynamic PET acquisition in list-mode. The PET list mode data were reconstructed into 30 frames (12 × 10, 6 × 30, 5 × 120, 5 × 300, 2 × 600 s) using an iterative VPFX-S algorithm (3 iterations, 3 subsets, matrix 256 × 256, Z-axis post-filter 3 mm) with all relevant corrections performed.

[6] = system: glucagon receptor (GCGR); conditions: in vitro and in vivo in rats and non-human primates; 16 (previous studies); cited from earlier work
Description: The manufacturing process of [^68Ga]Ga-DO3A-VS-Cys^40-Tuna-2 was automated for clinical use to meet the radiation safety and good manufacturing practice (GMP) requirements. Methods: The automated synthesis platform (Modular-Lab PharmTrace, Eckert & Ziegler, E ...

T1 sequence (P47871 26-477): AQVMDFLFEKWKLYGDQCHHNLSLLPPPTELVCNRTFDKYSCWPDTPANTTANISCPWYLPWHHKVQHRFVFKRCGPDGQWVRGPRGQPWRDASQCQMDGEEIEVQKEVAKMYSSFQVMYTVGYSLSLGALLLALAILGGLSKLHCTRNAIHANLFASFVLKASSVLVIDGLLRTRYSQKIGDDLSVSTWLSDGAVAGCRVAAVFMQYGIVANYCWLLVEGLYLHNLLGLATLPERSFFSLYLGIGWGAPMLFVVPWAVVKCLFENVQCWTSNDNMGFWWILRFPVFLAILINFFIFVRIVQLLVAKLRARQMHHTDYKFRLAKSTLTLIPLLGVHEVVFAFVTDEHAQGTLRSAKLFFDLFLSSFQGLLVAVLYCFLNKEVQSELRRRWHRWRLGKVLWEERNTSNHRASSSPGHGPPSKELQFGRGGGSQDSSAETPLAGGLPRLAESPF

Binding in the liver ([5]; T2D patients, IV bolus, baseline examinations, 60 min dynamic PET) | Substance | Formation of oxidized product upon storage [1] | Toxicity related to the substance [2] | Stability: radiochemical purity 2 h postproduction [3] [%] | RCP at ambient temperature for at least 2 h ([3]; ambient temperature, Figure 5, as stated in discussion) | Time for which the product was stable at ambient temperature ([3]; formulated product, ambient temperature, UV-radio-HPLC) | Radiochemical purity (RCP) after production, 1 h and 2 h post-production ([3]; formulated product, room temperature, radioactivity traces of Figure 5) | Sensitivity to oxidation [4] | Plasma kinetics ([5]; in vivo, iv) | Binding to the glucagon receptor (GCGR) [6]
 | TzaD-SerQGTFTSDYSKQLDE*QRAK*EFIEWLLATGPESGAPPPS (sidechain bridge or staple) [DO3A-VS-Cys^40-Tuna-2, unlabelled precursor (GMP-grade API starting material): Tuna-2 peptide coupled to DOTA bifunctional chelator via Cys40 and vinyl sulfone linker] | no formation of the oxidized product was detected | no DO3A-VS-Cys^40-Tuna-2 related toxicity |  |  |  |  |  |  | 
strong binding in the liver | TzaD-SerQGTFTSDYSKQLDE*QRAK*EFIEWLLATGPESGAPPPS (sidechain bridge or staple) [[^68Ga]Ga-DO3A-VS-Cys^40-Tuna-2, ^68Ga-labeled peptide-based PET imaging agent targeting GCGR; 39-residue Tuna-2 coupled to DOTA chelator via Cys40 and vinyl sulfone linker] |  |  | 97.9 ± 0.9 | over 95% | at least 2 h | over 98% | less sensitive to the oxidation | rapid plasma kinetics | high-affinity specific binding
